# Experimental data from a protein production outcome set (Wang et al. 2014).
# Experiment: label from the status in PepcDB records
row,Sequence,protein production
1,MGLGIVLQGEKQVVIGDQILTYCAGQTMLTTIDVPVVSHTHNAKNHKPFLGLMLLLDLSMISKVVTQMEQLNIKEKVQPSFAVQPIDYVLIEAVQRLVTLLDEPILLSQLSPIIQQEIMIRLLAGVNGVYLRQLIRVGSVSERVAKVVNWLKQNFVETIRLDELADRFYMSSATLRQHFREVTGMSPLQYQKHLRLQQARHLLFNQNLEVGHTADLVGYESVSQFSREYARLFGATPLKDKQAAQLS,failed
2,MAKLSRKERHRLLLQKIKENPFITDEELAEEFGCSVQTIRLDRAILDIKEVRERIKEMAKESLGKLKTISPRDVVGEIIDIELGSYAIATFEPELWMTFSNSQMVKGQHIYAFAESIAMSVIDAKAALIGIANIKYKTPVFANDRLVARAELKKKRNNKYIVWVFIKRNNEEVFRGKFILVAIDDENKETGQTGV,failed
3,MHSLYLGVVKVMAKIILVYANCVNSTAKGDFALAGQIAKDLVREKTSDDIDVVLTSTLDGIARFESLYGKAVDGRVIIEGTSVGLCALELFESVDNEVVAFIEANRCKYAPSDILKRVLSPDSKFLFIGAANQKAIATGDKFTKSWLYISHKGDQPNVYEHFDEDDSLIQSVGLGDDRLGLPSLPKVDELPEMNSTQSQKIPSGEYGFMYLAAVHGIDDVYLMNQYMSLTEMGQYVLVGEYAKQSKEVQMVLHSLQYKGSSVSLTMPQIFFHDSVDNCLMRNMVSKSSGPLVVSTGVMSSIEAMQDGKLTYYQTMSNNTQFVASYLIAVKSICSSDTTLFGSMPKLIIDLSNLLFAEKPLKESQMKEIKSLLGMSSVTSRLGEMNKRIIAKANGTVAGELLSFIGKPKTTQSHKQCISVCMSLRKSGETTSPIFDQALRRAAAWGRLFELKVLIASMSTSDLNKKDKTGNQYTALHWAVMQGHLDCARLLVKSGASVDIQDKSGKSPLHYAIKRGDKETIKLLVQAGASLEIMDDSGAKPCDGSESWVPEYIKSCYEKSGHKSSSLF,failed
4,MLKKLLLVSTVLLLSACSSRQYSESSLTQSKIDIYEQTQNYVALSDLYKAELKKEDSEEIREALAAALLHLEDPESALFYLKPNIENGASFQSYYLQASALGDLGKYPQAIKAALLSLEENPDNPETENLLGILYGHEYQYEKSRRYFQKAQLHFYDSNTIANNLAVLDIAEGNYKRAAQRLLPVYRSGQANEQVMANLILSMAKEQNLEFIQAVLGDKHTKKEIERIYQSLQRFNSLDIDTKKSV,failed
5,MIFSPDAFTGSILAVEGIRDAAVILNGPTGCKLYHSFLSDRQFPRESSHDPLAFQDEFYFGQPRVPCTCLDGEDFIQGSLEKFERALAAVAAKEKGLLVVINSPGASLVGDDLENVIKNAGLQNRCFVVEKTGFSLPAAQGFENTTLTLLEHLKLRSLFRPHNRSEFPKKVNLIGLSLLHKHWEGSVAEMKRLLSFLGLEVGAILLAGTSLDEIRESNNAACNIVLFPEYGRRVAEWYRKHFGIPAVFSPLGAPLGFDANESLLREVAAILNIDPAPALAEVREARQTSYRQISRFHSFSGLPKGASFSIQAESSLVFPLTHWLYSYLGMAPYAVKLLPGSDPEMARSLKSFLTEKGFCEAWDRDLSLESVDIAFADSFTLQLLKAKGCCKAGIEISLPDRGYIHFIPKTYLGVSGALFLLEEIINGLRST,failed
6,MHGVEFAPLERQHGSQVLALLRGTLLVPLPRLHQRLEEAYERDARLGLAQVALCRLAGNAEKVVGVLLARVATRRTCCAQVYIDAVAVDAVFQGQGIGSRLLLRVLTPCLPDGLEVREVFLHTPLQATELVAFYRSCGFESDDEVIDNYYPRRWMPQAQALVLRWRPPTAAQHQHEERKGPQDADVS,not failed
7,MIELEVVIRTVASFGLLLIAERILGKQTISQMTIFDFIAAITLGAIAAGLAYNTSIKPHNMAISFSIFVLTIFLISFLSIKNRKLRKFFAGDPTVLIQNGKILESNMRKMRYTLDYLNQQLREKEIFNIEEVLFAILETNGQLTVLRKPQFRHVTKQDLMIAVNQEQRLPIELIMDGEIIENNLKQNRLTESWLLEELRKRDIKVKETVYAVLLGNGDIYVDQYKDHISVPMDKE,failed
8,MMNKPAPRELEVIRSTYITPHMLRITLGGAGLAGFPADQESAYIKLLFPQAGERPLMRTYTIRQQRDDEIDVDFVLHDTDGPASSWAKTAQVGELIQIGGPGLKKLINFEADWFLLAGDMTALPAISVNLAKLPNNAVGYAVIEVLSEADIQPLVHPEHVELHWVINPEADPEGRPLVERIAQLPWLAGEPAVWIACEFNSMRALRRHFKQAHALPKSHFYTSSYWKIGCNEGEHKLVKQEDEQLENGASV,not failed
9,MTVVWINGAFGAGKTTTARELIELIPNSTLFDPEVVGGALAHLLPPKRLAEVGDFQDLPIWRRLVIDTAAALLADLGGTLVVPMTLLRQEYRDEIFGGLAARRIEVRHILLAPAETILRERIASREVPRDLPDGELRTRQWSYDHIEPYRAALASWLTADAHPVDTGALTPYEAAARVAEAVGSGAVPACEIVQTPEPTGETVAAGVLLFDERDRVLLVDPTYKPGWEFPGGVVEPGEAPARAGMREVAEETGLSLRDVPALLVVDWEPPAPPAYGGLRLLFDGGRLDAADAGRVLLPGPELRDWRFATEDEAAGLLPPVRYERLRWALRARERGAAHYLEAGTPVGLEHHHHHH,failed
10,MESTLSQLLPEALATRRRALAQMITGLHLAEHVHLSKVAGRIAGTAQLESKTRHLRRFLGNENVDPERFYSPVRDRLIEWAAQGAETQGSGPIRLLVDTVELSGERQVLMAGIAYRRRALPICWETYRREGVTNAEQQISLLKALVGRFPDEAEVVVVGDGAFHSTDLMDFIEDQGWHFCLRLHADTYIRSFKDSSKGFPKEGTWKQLRDLVPEEGERRYLQDVIVTKDNEYGPVGLALCQAEDEDDP,failed
11,MEPLGNRRPCSVCITKNRNCPRFCEYAEYFPYELQSQYESANELFGTPNIITMMQHAPEEKKQMLATSIIMEGNAWTEDPISGGFGMIQKLMWKIMLHKAYLRELQEKIKEEKEKKPASSLY,failed
12,MPVCARAAAATGAAGHRSHLPEVTFCLRTIAERLHGGQHRRMNSSFCHLLHPLRLAAAFTIAAVALSFMPDASAHGAWRWGALAGFTALFVLHTVLPQTHALRTVATLLQAVLALLLVWIEPRAGTAPVLLVMLVAQAGMTWPPLRVLLLALALNAGMYAVLVHAGFDRALLIVSIYAGFQAFAALTAHYARSAERARDALAYVNADLLATRALLADSARDAERLRLARELHDVAGHKLTAMRINLRLLSADPALAQRDEVAVVEQLSAELLSDIRNVVQSLRDDQGLDLQTALRALAAPFPRPTLRLQIDADVRVTDARVAELLLRLVQEALTNAVRHADADEVAVHLHCEGAQLHVDICDDGRRAERIREGNGITGMRERLAALHGQLDLGRTPTGGMHLIARLPV,failed
13,MSDIKKLGSSWIINWFFGFNQIPTNEDSSIYMKSVLTCAKADGVISPEEKDWALGFCASWGVADWVIEDLKTYEADEALEEVIARSPQVSMAQRDILLSAIWVSAADGELHEKEKAKIRKMATILGIKEEIVDQLEQLYYYEAALRQKRLNLLYPQKSPY,not failed
14,MNMNKTYIPKLDDLLGGGVKEGASIMFSASPGVDYEAFGYQMLNGRLDEGTRGFIFTNVEEPESIIYEFRSYGWDIESHIENGNLFFVDGSSPFLGMPSDQRYTVNDYSEIKDVVLNAINDIPGGVGIINNLSVIIDYLGNGDTLEIVEAWNRRASELDVNLVYLFTEWDYEPELIDKLRESMDCVVNLRTIEERVIIGQGFMVANSAWSEPPSTMVLFFVVQPGGVKVYVPKILVTGPYNSGKSSFVRAIATKSVSVDRKALSAFPTTIAMDIGHLEYKGFMADIFGTPGQERFDMILDVLSREAVGAFILLDSTAPETFARAKEMIRKTRAEAIPKVVVANKQDLPGALSPEEIREMMKLGADVPIVPASVTEGWGVRDALDTLLGLLYGGLEHHHHHH,failed
15,MKNDTAALAADIVDFWKKAGPDKWFDKDAAFDNHFHDRFRDAHFAAARRELDGWLEGAESSLALMLLLDQFPRNCFRGTAHMYATDPLARFFADEAIRRGHDQAVSEDLRVFFYLPFSHAEDIAAQQRACDLNQPLGGLYLHHAEEHRDIVERFGRFPHRNGILLRETTPEERQYLEEGGFSG,not failed
16,MNSLLFVYGTLRKHEKNHHLLAQSACINEQARTKGSLFAAKEGPTVVFNDEDEGYIYGEVYEADELCIHKLDQFFQGYHKQTVFVETDVGIKIALIYFMNKDGCAGFTKISSGDWKEHQMISKSKNPIYYFAYGSCMDNARFQKAGVDHYFQDPVGRAVLKGYTTRFTLKREDGSRADMLEDGGTTEGVLYRIPYSALSYLYKREGVESLTYRPAFVDVEAGGRHYKDCLTFLVLQKEAEIAPPQHYQIEIERGAELYLSPEFTEKLKRHMNSLPKGLEHHHHHH,not failed
17,MAPHSLKKNYRCSRSLKQFYGGGPFIVSSDGSFIACACGDVINIVDSTDSSVKSTIEGESDTLTALALSPDDKLLFSAGHSRQIRVWDLETLKCIRSWKGHEGPVMGMACHASGGLLATAGADRKVLVWDVDGGFCTHYFRGHKGVVSSILFHPDSNKNILISGSDDATVRVWDLNAKNTEKKCLAIMEKHFSAVTSIALSEDGLTLFSAGRDKVVNLWDLHDYSCKATVATYEVLEAVTTVSSGTPFASFVASLDQKKSKKKESDSQATYFITVGERGVVRIWKSEGSICLYEQKSSDITVSSDDEESKRGFTAAAMLPSDHGLLCVTADQQFFFYSVVENVEETELVLSKRLVGYNEEIADMKFLGDEEQFLAVATNLEEVRVYDVATMSCSYVLAGHKEVVLSLDTCVSSSGNVLIVTGSKDKTVRLWNATSKSCIGVGTGHNGDILAVAFAKKSFSFFVSGSGDRTLKVWSLDGISEDSEEPINLKTRSVVAAHDKDINSVAVARNDSLVCTGSEDRTASIWRLPDLVHVVTLKGHKRRIFSVEFSTVDQCVMTASGDKTVKIWAISDGSCLKTFEGHTSSVLRASFITDGTQFVSCGADGLLKLWNVNTSECIATYDQHEDKVWALAVGKKTEMIATGGGDAVINLWHDSTASDKEDDFRKEEEAILRGQELENAVLDAEYTKAIRLAFELCRPHKVFELFSGLCRKRDSDEQIVKALQGLEKEEFRLLFEYVREWNTKPKLCHIAQFVLYKTFNILPPTEIVQVKGIGELLEGLIPYSQRHFSRIDRFVRSSFLLDYTLGEMSVIDPETVETEYPKDEKKKEKDVIAAMEQDTDELKQETPSRKRKSQKSKGKSNKKRLIAEAQGSVIAV,failed
18,MEKIGETMAKLGQNTRVNSDQLIQTILADPEVASFISQHHLSQEQINLSLSKFNQFLVERQKYQLKDPSYIAKGYQPILAMNEGYADVSYLETKELVEAQKQAAISERIQLVSLPKSYRHIHLSDIDVNNASRMEAFSAILDFVEQYPSAEQKGLYLYGDMGIGKSYLLAAMAHELSEKKGVSTTLLHFPSFAIDVKNAISNGSVKEEIDAVKNVPVLILDDIGAEQATSWVRDEVLQVILQYRMLEELPTFFTSNYSFADLERKWATIKGSDETWQAKRVMERVRYLAREFHLEGANRRLEHHHHHH,not failed
19,MLAQQIVGIFLMTTGTLFVFVAGLGVLRLPDVYMRLHASTKAGTLGVALNAAGLVVFHPDLGIFTRAFALVLFLLLTAPVAAHMIGRASYFAREEMGVSIWDGTVVDRMLDHRGEALFSTGAPEDGADASGSPS,failed
20,KASTKLHVGNISPTCTNQELRAKFEEYGPVIECDIVKDYAFVHMERAEDAVEAIRGLDNTEFQGKRMHVQLSTSRLRTA,not failed
21,MPPMHELTIEGLGPCEVEEGTRLVRAIEDCGAAVGHRCGGQSQCTTCRVEFAAGEPPVMTEAEYDKLTDIGRLGEMRLACQIVVDRDMTLTPLMTVEDQGWDDAGPEPALMVEPDAEWFSIETLEQR,failed
22,MDLCRSSILLLIIALLSPRTLSMRYELKSSKTKCIGEEIHENAMSIGKYFIVNPNEDNHPLPDSHKIIVKVMPPQGKNLHEADKVEAGQFSFTAYENGSYVACITAIDYKPETTLTIDFDWKTGVHSKEWTNVAKKSQVDMMEYQVKTLMDTVISIHEEMYYLREREEEMQELNRSTNSKMAWLSFGSLVVCLSVAGLQFWHLKTFFEKKKLI,failed
